According to article PMC8465315, “Molecular Umbrella as a Nanocarrier for Antifungals” (Molecules, 2021):

Legend:
[1] = tested on: C. albicans cell-free extract; type: in vitro ADME, Candida albicans; conditions: conjugate 150 µM, 30 °C, 0, 30, 120 min
Procedure: (§1) Conjugates 24a–d, containing the TML system, were tested for susceptibility to enzymatic cleavage in the model system with pig liver esterase and in cell-free extract prepared from C. albicans cells. Conjugate 35 containing the o-dithiobenzylcarbamoyl linker was tested in the model system with glutathione and in C. albicans cell-free extract.
C. albicans cells were harvested from the culture in YPD medium in the logarithmic phase of growth and washed with PBS, pH 7.4. Then, cells were suspended in a minimal amount of PBS to an optical density OD660 ≈ 1.5. A sample of 1.5 mL of the cell suspension was put into the Lysing Matrix D, 2 mL tubes containing 1.4 mm ceramic spheres (MP Biomedicals). The tubes were vortexed 5 times for 2 min intervals, with 2 min breaks for cooling in the ice/water bath. Finally, the mixtures were centrifuged (10,000× g, 4 °C, 20 min), and the supernatant was pushed through the syringe filter, 0.22 μm pore size, to remove unbroken cells. The thus-obtained cell-free extract was kept at 4 °C and used no later than 5 h after preparation.
(§2) Analysis of cleavage of the conjugates was performed in two experimental systems: (A) model system, in the presence of pig liver esterase or glutathione, reduced; (B) in C. albicans cell-free extract.
A given conjugate was dissolved in 4 mL of C. albicans cell-free extract to the initial concentration of 150 µM. Mixtures were incubated at 30 °C. Samples of 1 mL were collected at zero time, after 30 min, and after 120 min. The collected samples were immediately de-proteinized by centrifugation (4 °C, 5000× g, 10 min) in Amicon® Ultra-4 Centrifugal Filter Units, 3 kDa cutoff limit. Samples of 50 μL were collected from the filtrates and subjected to HPLC-MS analysis.
(§3) The HPLC-MS system consisted of a liquid chromatograph, a degasser, a binary pomp, an auto-sampler, and a column oven, which was combined with an MS detector with an electrospray source (AJS ESI) and quadrupole analyzer (1260 Infinity II and 6470 Triple Quad LC/MS, Agilent Technologies, Waldbronn, Germany). The ChemStation software was used to control the LC-MS system and for data processing.
(§4) Chromatographic separations were performed on an Eclipse XDB-C18 column (150 mm × 4.6 mm, 5 μm). For the separation, a gradient of mobile phase A (H2O + 0.01% HCOOH) and mobile phase B (100% methanol) was used. The gradient profile was set as follows: 0 min—95% effluent A, 8 min—70% effluent A, 11 min—50% effluent A, 12 min—95% effluent A, 17 min—95% effluent A. The flow rate was 1 mL min^−1, the column temperature was 25 °C, and the injection volume was 20 μL.
(§5) The electrospray source operated in a negative mode. The data were collected in a MS scanning mode (MS2 SCAN) with the range 150–700 (m/z).

[2] = tested on: Candida spp.; assay: Antifungal in vitro activity, summary statements over the Candida strains tested; type: cell-based; conditions: RPMI-1640 medium
Procedure: The antifungal in vitro activity of conjugates 24a–d and 35 was determined by the serial two-fold dilution method, using the 96-well microtiter plates, in two growth media, RPMI-1640 and YNB-AS, against seven yeast species from the Candida genus. The MIC50 and MIC90 values, i.e., concentrations at which cell growth was inhibited in 50% and 90%, respectively, were measured and compared to those of the intact cispentacin. The concentration values presented in Table 1 and Table 2 are expressed in mM units to allow the comparison of the compounds’ effectiveness at the molecular level. For data expressed in μg mL^−1 units, such comparison is not possible, since the molecular masses of conjugates (≈1755–2114 D range) are 14–16-fold higher than that of cispentacin (128.3 D).
Susceptibility testing was performed in two growth media: (a) RPMI-1640 w/o sodium bicarbonate, with L-glutamine + 2% glucose + 3.45% MOPS, pH adjusted to 7.0; (b) YNB-AS—Yeast Nitrogen Base w/o amino acids (contains ammonium sulfate 5 g L^−1) + 2% glucose. The in vitro growth inhibitory activity of antifungals was quantified by determination of MIC50 and MIC90 values by the serial two-fold dilution method, using the 96-well microtiter plates. Serial dilutions of cispentacin and its conjugates were prepared in the 4–0.015 mM range.
Conditions of the RPMI-1640-based assay were the same as outlined in the CLSI recommendations except for the end-point readout that was done by spectrophotometric determination of cell density at 660 nm. Turbidity in individual wells was measured with a microplate reader (Victor^3; Perkin Elmer). The 96-well microtiter plates were also used for the determination of in vitro growth inhibitory activity in YNB-AS medium. Individual wells were inoculated with 5 × 10^3 Candida cells mL^−1 from the overnight culture in YPD medium. The plates were incubated at 37 °C for 24 h, and then, turbidity was measured with a microplate reader at 660 nm, as described above for the RPMI-1640-based assay.
Values of MIC50 and MIC90 were read from the graphs of A660 vs. drug concentration and corresponded to the interpolated values of drug concentration at which A660 was 50% or 10% of that measured for the drug-free control.

[3] = tested on: pig liver esterase; assay: HPLC-MS analysis of conjugate cleavage, model system with pig liver esterase; type: in vitro ADME; conditions: pig liver esterase 5 mg mL^−1; conjugate 150 µM; 30 °C; 0, 30, 120 min
Procedure: as §1, §2
Mixtures containing a given conjugate at the initial concentration of 150 µM and pig liver esterase, 5 mg mL^−1 or 10 mM glutathione, reduced, in a total volume of 200 μL were incubated at 30 °C. Samples of 50 μL were collected at zero time, after 30 min, and after 120 min and subjected to HPLC-MS analysis.
as §3, §4, §5

Structure (SMILES): Cc1cc(C)c(C(C)(C)CC(=O)N[C@H]2CCC[C@H]2C(=O)O)c(OC(=O)CCC(=O)N(CCCCNC(=O)CC[C@@H](C)[C@H]2CC[C@H]3[C@@H]4CC[C@@H]5C[C@H](OS(=O)(=O)O)CC[C@]5(C)[C@H]4C[C@H](OS(=O)(=O)O)[C@]23C)CCCNC(=O)CC[C@@H](C)[C@H]2CC[C@H]3[C@@H]4CC[C@@H]5C[C@H](OS(=O)(=O)O)CC[C@]5(C)[C@H]4C[C@H](OS(=O)(=O)O)[C@]23C)c1 [24a]
- cleavage / release of cispentacin or its derivative (HPLC-MS) [1]: Neither cispentacin nor the m/z 145.1/145.2 compound was found
- antifungal activity [2]: devoid of antifungal activity
- cleavage / release of cispentacin (HPLC-MS) [3]: resistant to enzymatic cleavage

Structure (SMILES): Cc1cc(C)c(C(C)(C)CC(=O)N[C@H]2CCC[C@H]2C(=O)O)c(OC(=O)CCC(=O)N(CCCCNC(=O)CC[C@@H](C)[C@H]2CC[C@H]3[C@@H]4[C@H](OS(=O)(=O)O)C[C@@H]5C[C@H](OS(=O)(=O)O)CC[C@]5(C)[C@H]4C[C@H](OS(=O)(=O)O)[C@]23C)CCCNC(=O)CC[C@@H](C)[C@H]2CC[C@H]3[C@@H]4[C@H](OS(=O)(=O)O)C[C@@H]5C[C@H](OS(=O)(=O)O)CC[C@]5(C)[C@H]4C[C@H](OS(=O)(=O)O)[C@]23C)c1 [24b]
- cleavage / release of cispentacin or its derivative (HPLC-MS) [1]: Neither cispentacin nor the m/z 145.1/145.2 compound was found
- antifungal activity [2]: devoid of antifungal activity
- cleavage / release of cispentacin (HPLC-MS) [3]: resistant to enzymatic cleavage
